The target in experiment [1] is T1, human BAFF (UniProt Q9Y275 82-285). The experiment is described as follows: competitive SPR.
Experiment [2] deals with T2, TRX-APRIL (mouse, UniProt Q9D777 104-241).
T2 chain: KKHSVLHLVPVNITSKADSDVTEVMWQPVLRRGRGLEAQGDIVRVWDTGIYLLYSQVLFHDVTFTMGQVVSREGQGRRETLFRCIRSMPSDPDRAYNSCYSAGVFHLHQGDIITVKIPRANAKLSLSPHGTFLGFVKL
The experiment is described as follows: competitive SPR (BCMA-Fc).

Experiment [3] concerns the target T1, human BAFF. The experiment is described as follows: competitive SPR. The source holds these as a separate data set.
Experiment [4] concerns the target T2, TRX-APRIL. Put plainly: competitive SPR.
The target in experiment [5] is T1, human BAFF. The experiment is described as follows: competitive SPR; interaction observed, curve not fitted adequately.

Ends that are not written are not given here.

T1 sequence (Q9Y275 82-285): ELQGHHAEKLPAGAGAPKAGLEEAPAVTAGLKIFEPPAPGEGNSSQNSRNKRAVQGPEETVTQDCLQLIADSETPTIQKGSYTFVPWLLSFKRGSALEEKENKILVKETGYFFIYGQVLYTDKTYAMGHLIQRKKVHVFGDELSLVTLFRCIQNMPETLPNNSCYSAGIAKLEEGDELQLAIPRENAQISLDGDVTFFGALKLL

B1: TACI_d1d2 (residues 21-116 of the TACI extracellular domain, C-terminal His-tag) (receptor)
chain: FPQGLWTGVAMRSCPEEQYWDPLLGTCMSCKTICNHQSQRTCAAFCRSLSCRKEQGKFYDHLLRDCISCASICGQHPKQCAYFCENKLRSPVNLPP
One may read the IC50 as the midpoint of a concentration-inhibition curve. High values mean a need for much substance, low ones inhibition by little substance. Turning to B1, the figures for the IC50 with human BAFF [1] and with TRX-APRIL [2] were 1.3 nM and 11 nM, respectively.

B2: TACI_d2 (second cysteine-rich domain, CRD2, residues 68-109 of human TACI) (receptor)
chain: GSPWSLSCRKEQGKFYDHLLRDCISCASICGQHPKQCAYFCENKLR
As for B2, the IC50 amounted to 4 nM with human BAFF [3], 3.2 nM with TRX-APRIL [4] and 1.8 nM in the experiment with human BAFF [1].

B3: TACI_d1 (first CRD of TACI, residues 32-67) (receptor)
chain: RSCPEEQYWDPLLGTCMSCKTICNHQSQRTCAAFCR
modifications: disulfide (positions not given here); also: more than one disulfide-bonded isomer, pairings not given here
With B3, the values for the IC50 with TRX-APRIL [2] and with human BAFF [5] were 2000 nM and above 100 nM, respectively.

Values taken from patent publication US20080181886A1 (published 2008).
